The text below walks through data of patent US20100233689A1.

Assay [1] addresses rat MISRII receptor (MIS type II receptor), transiently expressed in COS7 cells (rat) (UniProt Q62893). The assay can be described thus: cell-based or functional assay.
In assay [2] the target is endogenous MISRII of the mouse ovarian cancer cell line MOVCAR7 (mouse) (UniProt Q8K592). The assay can be described thus: cell-based or functional assay.
endogenous MISRII of the mouse ovarian cancer cell line MOVCAR7 (mouse), sequence (Q8K592 16-568): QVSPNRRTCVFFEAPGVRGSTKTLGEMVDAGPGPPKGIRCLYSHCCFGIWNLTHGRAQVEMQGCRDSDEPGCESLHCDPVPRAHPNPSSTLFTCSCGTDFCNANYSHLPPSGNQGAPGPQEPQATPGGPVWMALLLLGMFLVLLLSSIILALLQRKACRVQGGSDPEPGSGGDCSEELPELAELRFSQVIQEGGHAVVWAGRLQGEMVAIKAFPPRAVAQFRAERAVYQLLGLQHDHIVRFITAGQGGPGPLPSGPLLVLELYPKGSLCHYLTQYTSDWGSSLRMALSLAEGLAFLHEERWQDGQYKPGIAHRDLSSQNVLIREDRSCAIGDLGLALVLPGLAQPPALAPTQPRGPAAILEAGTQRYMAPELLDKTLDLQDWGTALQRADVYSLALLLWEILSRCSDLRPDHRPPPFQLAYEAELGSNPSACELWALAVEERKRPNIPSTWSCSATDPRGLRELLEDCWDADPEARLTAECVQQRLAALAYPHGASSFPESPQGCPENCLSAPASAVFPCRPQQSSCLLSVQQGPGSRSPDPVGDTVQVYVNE

rat MISRII receptor (MIS type II receptor), transiently expressed in COS7 cells (rat), sequence (Q62893 18-557): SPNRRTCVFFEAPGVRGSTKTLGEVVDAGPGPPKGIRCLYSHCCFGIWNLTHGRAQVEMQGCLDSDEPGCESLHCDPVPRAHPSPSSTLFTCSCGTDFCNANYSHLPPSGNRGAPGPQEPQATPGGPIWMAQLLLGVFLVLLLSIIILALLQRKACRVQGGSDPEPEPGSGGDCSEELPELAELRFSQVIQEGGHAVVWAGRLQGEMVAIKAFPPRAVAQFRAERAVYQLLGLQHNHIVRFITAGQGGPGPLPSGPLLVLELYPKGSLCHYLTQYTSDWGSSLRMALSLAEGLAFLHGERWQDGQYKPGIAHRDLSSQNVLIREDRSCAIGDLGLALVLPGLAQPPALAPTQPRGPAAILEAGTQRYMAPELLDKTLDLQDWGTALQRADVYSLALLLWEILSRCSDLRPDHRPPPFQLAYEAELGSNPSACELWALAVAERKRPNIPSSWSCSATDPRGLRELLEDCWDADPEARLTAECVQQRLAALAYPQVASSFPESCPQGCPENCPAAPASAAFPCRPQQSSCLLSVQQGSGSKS

Substance “Recombinant human Mullerian Inhibiting Substance (MIS) (from UniProt P03971 25-560) (ligand)” came in with a BRE-luciferase reporter expression in MISRII-transfected COS7 cells, fold induction, 24 h in assay [1] above 10 fold. In addition, in assay [2], the BRE-luciferase activity in MOVCAR7 cells, fold increase over untreated cells, 24 h came to 2 fold.
